{
  "source": "the Human Domainome abundance scans (Beltran et al. 2025)",
  "note": "± gives the uncertainty stated by the source.",
  "data": [
    {"experiment": "abundance fitness (aPCA) (normalised: wild type 0, dead -1); higher = more abundant; growth selection in yeast, the domain comes from the species named", "conditions": "Homo sapiens", "values": [
      {"substance": "Telomeric repeat-binding factor 2 A513T, Q15554", "abundance fitness": "0.25 ± 0.098"},
      {"substance": "Telomeric repeat-binding factor 2 A514R, Q15554", "abundance fitness": "-0.428 ± 0.11"},
      {"substance": "Telomeric repeat-binding factor 2 E509V, Q15554", "abundance fitness": "-0.353 ± 0.076"},
      {"substance": "Telomeric repeat-binding factor 2 I529L, Q15554", "abundance fitness": "-0.213 ± 0.079"},
      {"substance": "Telomeric repeat-binding factor 2 K491R, Q15554", "abundance fitness": "-0.21 ± 0.065"},
      {"substance": "Telomeric repeat-binding factor 2 K517Q, Q15554", "abundance fitness": "-0.035 ± 0.044"},
      {"substance": "Telomeric repeat-binding factor 2 N518H, Q15554", "abundance fitness": "-0.227 ± 0.068"},
      {"substance": "Telomeric repeat-binding factor 2 N523D, Q15554", "abundance fitness": "-0.199 ± 0.061"},
      {"substance": "Telomeric repeat-binding factor 2 P520D, Q15554", "abundance fitness": "-0.564 ± 0.055"},
      {"substance": "Telomeric repeat-binding factor 2 Q490K, Q15554", "abundance fitness": "-0.247 ± 0.21"},
      {"substance": "Telomeric repeat-binding factor 2 S497D, Q15554", "abundance fitness": "0.392 ± 0.099"},
      {"substance": "Telomeric repeat-binding factor 2 S516L, Q15554", "abundance fitness": "0.222 ± 0.087"},
      {"substance": "Telomeric repeat-binding factor 2 V522R, Q15554", "abundance fitness": "0.031 ± 0.058"},
      {"substance": "Telomeric repeat-binding factor 2 W499Q, Q15554", "abundance fitness": "-0.018 ± 0.095"},
      {"substance": "Telomeric repeat-binding factor 2 Y507F, Q15554", "abundance fitness": "-0.559 ± 0.17"}
    ]}
  ]
}
